The record followed here is patent US20240294593A1 (Genentech, published 2024).

The Kd is the concentration at which binding is half-saturated. Low readings indicate a tighter complex, high ones a looser complex. As a reminder, the koff is the rate constant with which the complex falls apart. Read a high koff as a short-lived complex. A word on the kon: it is a measure of how fast the partners come together. A lower kon goes with slower complex formation.

B1: H1_L1.82 (antibody, V domains shown)
VH: EVQLVESGGGLVQPGGSLRLSCAASGFTFSSFGMHWVRQAPGKGLEWVSYISSGSSIIYYADSVKGRFTISRDNAKNSLYLQMNSLRAEDTAVYYCARGGRLVWSPDYWGQGTLVTVSS
VL: DIVMTQSPDSLAVSLGERATINCKSSQSLLNSGNQKNYLTWYQQKPGQPPKLLIYWASKRESGVPDRFTGSGSGTDFTLTISSLQAEDVAVYYCQNDYSYPFTFGSGTKLEIKR
notes: also called VL-T59K; Kabat 53
B2: H1_L1.84 (antibody, V domains shown)
VH: EVQLVESGGGLVQPGGSLRLSCAASGFTFSSFGMHWVRQAPGKGLEWVSYISSGSSIIYYADSVKGRFTISRDNAKNSLYLQMNSLRAEDTAVYYCARGGRLVWSPDYWGQGTLVTVSS
VL: DIVMTQSPDSLAVSLGERATINCKSSQSLLNSGNQKNYLTWYQQKPGQPPKLLIYWASTRQSGVPDRFTGSGSGTDFTLTISSLQAEDVAVYYCQNDYSYPFTFGSGTKLEIKR
notes: also called VL-E61Q; Kabat 55
B3: H1_L1.83 (antibody, V domains shown)
VH: EVQLVESGGGLVQPGGSLRLSCAASGFTFSSFGMHWVRQAPGKGLEWVSYISSGSSIIYYADSVKGRFTISRDNAKNSLYLQMNSLRAEDTAVYYCARGGRLVWSPDYWGQGTLVTVSS
VL: DIVMTQSPDSLAVSLGERATINCKSSQSLLNSGNQKNYLTWYQQKPGQPPKLLIYWASYRESGVPDRFTGSGSGTDFTLTISSLQAEDVAVYYCQNDYSYPFTFGSGTKLEIKR
notes: also called VL-T59Y; Kabat 53
B4: H1_L1.88 (antibody, V domains shown)
VH: EVQLVESGGGLVQPGGSLRLSCAASGFTFSSFGMHWVRQAPGKGLEWVSYISSGSSIIYYADSVKGRFTISRDNAKNSLYLQMNSLRAEDTAVYYCARGGRLVWSPDYWGQGTLVTVSS
VL: DIVMTQSPDSLAVSLGERATINCKSSQSLLNSGNQKNYLTWYQQKPGQPPKLLIYWASTRASGVPDRFTGSGSGTDFTLTISSLQAEDVAVYYCQNDYSYPFTFGSGTKLEIKR
notes: also called VL-E61A; Kabat 55
B5: H1_L1.86 (antibody, V domains shown)
VH: EVQLVESGGGLVQPGGSLRLSCAASGFTFSSFGMHWVRQAPGKGLEWVSYISSGSSIIYYADSVKGRFTISRDNAKNSLYLQMNSLRAEDTAVYYCARGGRLVWSPDYWGQGTLVTVSS
VL: DIVMTQSPDSLAVSLGERATINCKSSQSLLNSGNQKNYLTWYQQKPGQPPKLLIYWASTRSSGVPDRFTGSGSGTDFTLTISSLQAEDVAVYYCQNDYSYPFTFGSGTKLEIKR
notes: also called VL-E61S; Kabat 55
B6: H1_L1.87 (antibody, V domains shown)
VH: EVQLVESGGGLVQPGGSLRLSCAASGFTFSSFGMHWVRQAPGKGLEWVSYISSGSSIIYYADSVKGRFTISRDNAKNSLYLQMNSLRAEDTAVYYCARGGRLVWSPDYWGQGTLVTVSS
VL: DIVMTQSPDSLAVSLGERATINCKSSQSLLNSGNQKNYLTWYQQKPGQPPKLLIYWASTRHSGVPDRFTGSGSGTDFTLTISSLQAEDVAVYYCQNDYSYPFTFGSGTKLEIKR
notes: also called VL-E61H; Kabat 55
B7: H1_L1.85 (antibody, V domains shown)
VH: EVQLVESGGGLVQPGGSLRLSCAASGFTFSSFGMHWVRQAPGKGLEWVSYISSGSSIIYYADSVKGRFTISRDNAKNSLYLQMNSLRAEDTAVYYCARGGRLVWSPDYWGQGTLVTVSS
VL: DIVMTQSPDSLAVSLGERATINCKSSQSLLNSGNQKNYLTWYQQKPGQPPKLLIYWASTRKSGVPDRFTGSGSGTDFTLTISSLQAEDVAVYYCQNDYSYPFTFGSGTKLEIKR
notes: also called VL-E61K; Kabat 55

T1 sequence (Q15116 25-167 limits assumed): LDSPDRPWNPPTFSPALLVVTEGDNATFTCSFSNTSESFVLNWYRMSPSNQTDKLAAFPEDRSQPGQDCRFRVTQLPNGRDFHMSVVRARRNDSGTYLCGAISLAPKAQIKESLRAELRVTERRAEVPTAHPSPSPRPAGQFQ

This assay has as its target T1, human PD-1-His (human, UniProt Q15116 25-167, limits assumed).
T1 construct: Antigen of the Octet assays; not shown: His tag
Put plainly: Octet [D00120 Figure 65H]. From the text:
In particular, anti-human IgG-Fc (AHC) biosensors were used to capture the test articles and dipped into multiple concentrations of PD-1.
In general terms: In BLI a coated tip is dipped into the sample, and binding shifts an interference pattern.
Consider B1, for which binding was put at a Kd of 52.6 nM, the koff was found to be 0.00602 s⁻¹ and the kon was 114000 M⁻¹ s⁻¹.

In the case of B2, the affinity, expressed as Kd, was 46 nM; the koff stood at 0.00478 s⁻¹; the kon was determined as 104000 M⁻¹ s⁻¹.

For B3, the affinity, expressed as Kd, was 64.3 nM; the koff was 0.00603 s⁻¹; the kon is 93800 M⁻¹ s⁻¹.

In turn, B4 gave a Kd of 43.3 nM, a koff of 0.00411 s⁻¹ and a kon of 95000 M⁻¹ s⁻¹.

Turning to B5, the Kd was 40.6 nM, the koff amounted to 0.0047 s⁻¹ and the kon came out at 116000 M⁻¹ s⁻¹.

With B6, the Kd is 50.9 nM, the koff worked out at 0.00552 s⁻¹ and the kon came to 109000 M⁻¹ s⁻¹.

In turn, B7 displayed a Kd of 31.8 nM, a koff of 0.00316 s⁻¹ and a kon of 99400 M⁻¹ s⁻¹.
